Assay results as given in paper PMC5041073.

Target: Dbf4(5)Rad53 chimera (Dbf4-SGASG-Rad53) (S. cerevisiae) (UniProt P32325)
Experiment: AUC; sedimentation velocity, 50,000 rpm, 20 °C, 2 to 310 μM, 0.2 M NaCl, 0.02 M TRIS-HCl pH 8.0, 1.4 mM 2-mercaptoethanol, 5% v/v glycerol; weighted-average s isotherm fitted to a reversible monomer-dimer equilibrium; dimer to monomers

For “Dbf4(5)Rad53 chimera (Dbf4-SGASG-Rad53) (from UniProt P32325 105-220; P22216 22-162)”, the Kd was 130 µM and the stoichiometry N was 2.
